# Laboratory results from paper PMC9482650, “Quantitative fragmentomics allow affinity mapping of interactomes” (Nature Communications, 2022).
# Key:
# Assay in all cases: holdup assay
# Parameters in all cases: key: below the threshold = too weak to quantify, mostly under pKd 3.1 to 4
# Details in all cases: plain residues with an end cap or a label only (N-terminal biotin on a linker: ado-ado)
# AHNAK1, Q09666 = molecular target: AHNAK1, Q09666
# APBA2_1, Q99767 = molecular target: T1, APBA2_1, Q99767
# T1 sequence (Q99767 563-664, limits assumed, looked up): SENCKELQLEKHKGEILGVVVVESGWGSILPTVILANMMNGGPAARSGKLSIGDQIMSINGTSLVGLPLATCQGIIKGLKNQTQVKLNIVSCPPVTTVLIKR
# ARHGEF12, Q9NZN5-2 = molecular target: ARHGEF12, Q9NZN5-2
# DFNB31_1, Q9P202 = molecular target: T2, DFNB31_1, Q9P202
# T2 sequence (Q9P202 135-233, limits assumed, looked up): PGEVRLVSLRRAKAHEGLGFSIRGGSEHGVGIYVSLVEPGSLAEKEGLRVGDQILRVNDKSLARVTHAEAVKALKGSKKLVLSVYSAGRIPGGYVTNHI
# DLG1_2, Q12959 = molecular target: DLG1_2, Q12959
# DLG2_3, Q15700 = molecular target: DLG2_3, Q15700
# DLG4_3, P78352 = molecular target: DLG4_3, P78352
# DVL3, Q92997 = molecular target: T3, DVL3, Q92997
# T3 sequence (Q92997 244-331, limits assumed, looked up): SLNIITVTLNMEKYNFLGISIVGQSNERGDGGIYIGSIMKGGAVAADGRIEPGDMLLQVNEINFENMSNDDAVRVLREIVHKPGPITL
# GRIP1_2, Q9Y3R0 = molecular target: T4, GRIP1_2, Q9Y3R0
# T4 sequence (Q9Y3R0 145-248, limits assumed, looked up): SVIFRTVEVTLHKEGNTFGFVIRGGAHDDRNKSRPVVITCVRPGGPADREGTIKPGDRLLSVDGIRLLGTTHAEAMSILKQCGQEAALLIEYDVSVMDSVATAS
# GRIP1_3, Q9Y3R0 = molecular target: T5, GRIP1_3, Q9Y3R0
# T5 sequence (Q9Y3R0 247-346, limits assumed, looked up): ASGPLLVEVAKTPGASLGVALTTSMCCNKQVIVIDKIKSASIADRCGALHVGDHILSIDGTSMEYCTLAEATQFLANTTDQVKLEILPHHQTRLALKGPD
# Inadl_10, Q8NI35 = molecular target: Inadl_10, Q8NI35
# Inadl_4, Q8NI35 = molecular target: Inadl_4, Q8NI35
# LRRC7, Q96NW7 = molecular target: T6, LRRC7, Q96NW7
# T6 sequence (Q96NW7 1440-1537, limits assumed, looked up): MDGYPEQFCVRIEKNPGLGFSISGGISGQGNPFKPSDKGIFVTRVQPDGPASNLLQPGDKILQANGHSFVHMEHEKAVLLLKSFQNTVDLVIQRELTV
# MAGI2_3, Q86UL8 = molecular target: MAGI2_3, Q86UL8
# MAGI2_5, Q86UL8 = molecular target: MAGI2_5, Q86UL8
# MPDZ_12, O75970 = molecular target: T7, MPDZ_12, O75970
# T7 sequence (O75970 1857-1958, limits assumed, looked up): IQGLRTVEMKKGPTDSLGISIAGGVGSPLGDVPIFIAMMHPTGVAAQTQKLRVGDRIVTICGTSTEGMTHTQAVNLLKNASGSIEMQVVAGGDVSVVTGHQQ
# NHERF4_2, Q86UT5 = molecular target: NHERF4_2, Q86UT5
# PARD3_3, Q8TEW0 = molecular target: PARD3_3, Q8TEW0
# PDZRN3_1, Q9UPQ7 = molecular target: T8, PDZRN3_1, Q9UPQ7
# T8 sequence (Q9UPQ7 244-349, limits assumed, looked up): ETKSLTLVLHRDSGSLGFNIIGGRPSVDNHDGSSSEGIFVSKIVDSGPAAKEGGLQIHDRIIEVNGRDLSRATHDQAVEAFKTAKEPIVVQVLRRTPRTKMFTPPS
# RADIL, Q96JH8 = molecular target: T9, RADIL, Q96JH8
# T9 sequence (Q96JH8 971-1071, limits assumed, looked up): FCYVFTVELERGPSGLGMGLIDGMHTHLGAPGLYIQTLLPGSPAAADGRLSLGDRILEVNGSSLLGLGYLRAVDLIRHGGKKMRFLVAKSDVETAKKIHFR
# RHPN1, Q8TCX5 = molecular target: T10, RHPN1, Q8TCX5
# T10 sequence (Q8TCX5 508-602, limits assumed, looked up): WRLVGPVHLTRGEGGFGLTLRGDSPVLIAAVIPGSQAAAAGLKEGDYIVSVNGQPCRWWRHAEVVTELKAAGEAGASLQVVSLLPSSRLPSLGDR
# SCRIB_1, Q14160 = molecular target: SCRIB_1, Q14160
# SCRIB_3, Q14160 = molecular target: SCRIB_3, Q14160
# SNTB1, Q13884 = molecular target: T11, SNTB1, Q13884
# T11 sequence (Q13884 107-205, limits assumed, looked up): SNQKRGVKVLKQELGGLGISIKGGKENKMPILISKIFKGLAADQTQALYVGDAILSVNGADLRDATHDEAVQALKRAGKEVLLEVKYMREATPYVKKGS
# SNTG2, Q9NY99 = molecular target: T12, SNTG2, Q9NY99
# T12 sequence (Q9NY99 68-166, limits assumed, looked up): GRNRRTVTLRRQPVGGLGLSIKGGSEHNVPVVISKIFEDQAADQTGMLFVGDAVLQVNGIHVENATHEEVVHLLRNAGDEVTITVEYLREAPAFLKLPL
# Sequence of DLG4_3, P78352 (P78352 306-403): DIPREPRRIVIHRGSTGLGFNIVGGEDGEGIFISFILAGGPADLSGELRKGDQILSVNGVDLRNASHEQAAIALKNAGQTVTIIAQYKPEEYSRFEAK
# Sequence of SCRIB_1, Q14160 (Q14160 718-814): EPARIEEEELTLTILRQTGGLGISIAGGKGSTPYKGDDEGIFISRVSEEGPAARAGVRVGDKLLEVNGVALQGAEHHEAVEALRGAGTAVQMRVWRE
# Sequence of Inadl_10, Q8NI35 (Q8NI35 1673-1763): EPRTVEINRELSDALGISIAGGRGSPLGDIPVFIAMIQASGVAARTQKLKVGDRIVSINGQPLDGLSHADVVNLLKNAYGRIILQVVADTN
# Sequence of Inadl_4, Q8NI35 (Q8NI35 547-651): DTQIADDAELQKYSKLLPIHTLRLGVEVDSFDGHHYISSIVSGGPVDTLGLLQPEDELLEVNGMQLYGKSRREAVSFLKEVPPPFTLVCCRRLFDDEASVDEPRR
# Sequence of ARHGEF12, Q9NZN5-2 (Q9NZN5 other isoform, or with tags, fused parts or gaps): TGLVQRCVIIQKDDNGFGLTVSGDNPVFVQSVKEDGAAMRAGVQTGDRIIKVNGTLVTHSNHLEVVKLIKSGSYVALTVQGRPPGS
# Sequence of DLG1_2, Q12959 (Q12959 314-412): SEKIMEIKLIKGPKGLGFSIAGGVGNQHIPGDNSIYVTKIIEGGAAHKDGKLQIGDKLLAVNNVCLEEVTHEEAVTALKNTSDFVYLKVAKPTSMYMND
# Sequence of PARD3_3, Q8TEW0 (Q8TEW0 582-685): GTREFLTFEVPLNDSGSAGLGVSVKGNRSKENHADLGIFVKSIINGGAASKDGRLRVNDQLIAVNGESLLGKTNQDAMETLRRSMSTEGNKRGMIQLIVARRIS
# Sequence of SCRIB_3, Q14160 (Q14160 999-1103): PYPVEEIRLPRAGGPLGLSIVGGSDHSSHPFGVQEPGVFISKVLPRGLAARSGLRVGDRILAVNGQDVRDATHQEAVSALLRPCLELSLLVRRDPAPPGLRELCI
# Sequence of NHERF4_2, Q86UT5 (Q86UT5 220-308): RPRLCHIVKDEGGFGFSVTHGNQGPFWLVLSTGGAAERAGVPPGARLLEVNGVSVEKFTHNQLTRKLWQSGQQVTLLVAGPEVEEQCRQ
# Sequence of AHNAK1, Q09666 (Q09666 4-100): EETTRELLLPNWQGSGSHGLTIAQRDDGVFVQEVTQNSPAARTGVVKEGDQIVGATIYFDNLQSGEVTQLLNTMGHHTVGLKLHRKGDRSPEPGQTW
# Sequence of MAGI2_3, Q86UL8 (Q86UL8 600-682): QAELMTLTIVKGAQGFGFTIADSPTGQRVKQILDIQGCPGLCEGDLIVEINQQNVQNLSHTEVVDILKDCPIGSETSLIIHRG
# Sequence of MAGI2_5, Q86UL8 (Q86UL8 915-1017): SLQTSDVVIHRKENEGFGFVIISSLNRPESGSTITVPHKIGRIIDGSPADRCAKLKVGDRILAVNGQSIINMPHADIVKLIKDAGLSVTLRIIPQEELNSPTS
Binder,"pKd (AHNAK1, Q09666)","pKd (APBA2_1, Q99767)","pKd (ARHGEF12, Q9NZN5-2)","pKd (DFNB31_1, Q9P202)","pKd (DLG1_2, Q12959)","pKd (DLG2_3, Q15700)","pKd (DLG4_3, P78352)","pKd (DVL3, Q92997)","pKd (GRIP1_2, Q9Y3R0)","pKd (GRIP1_3, Q9Y3R0)","pKd (Inadl_10, Q8NI35)","pKd (Inadl_4, Q8NI35)","pKd (LRRC7, Q96NW7)","pKd (MAGI2_3, Q86UL8)","pKd (MAGI2_5, Q86UL8)","pKd (MPDZ_12, O75970)","pKd (NHERF4_2, Q86UT5)","pKd (PARD3_3, Q8TEW0)","pKd (PDZRN3_1, Q9UPQ7)","pKd (RADIL, Q96JH8)",also measured
"QKNKDREYYV [NRXN3, Q9HDB5]",below the threshold,below the threshold,3.65,below the threshold,below the threshold,below the threshold,below the threshold,4.02,below the threshold,below the threshold,below the threshold,below the threshold,below the threshold,below the threshold,below the threshold,below the threshold,below the threshold,4.59,below the threshold,4.7,"pKd (RHPN1, Q8TCX5): below the threshold; pKd (SCRIB_1, Q14160): below the threshold; pKd (SCRIB_3, Q14160): below the threshold; pKd (SNTB1, Q13884): 3.65; pKd (SNTG2, Q9NY99): 3.5"
"KAEEKPPSKV [SCN4B, Q8IWT1]",below the threshold,below the threshold,below the threshold,3.57,3.52,below the threshold,below the threshold,below the threshold,below the threshold,below the threshold,below the threshold,below the threshold,below the threshold,3.48,3.51,3.49,3.49,below the threshold,below the threshold,below the threshold,"pKd (RHPN1, Q8TCX5): below the threshold; pKd (SCRIB_1, Q14160): below the threshold; pKd (SCRIB_3, Q14160): below the threshold; pKd (SNTB1, Q13884): below the threshold; pKd (SNTG2, Q9NY99): below the threshold"
"THREVKFTSL [CD46, P15529]",below the threshold,below the threshold,5.37,3.82,3.88,4.38,4.3,below the threshold,below the threshold,below the threshold,3.49,below the threshold,below the threshold,below the threshold,3.84,below the threshold,below the threshold,below the threshold,4.27,3.49,"pKd (RHPN1, Q8TCX5): 4.48; pKd (SCRIB_1, Q14160): 4.95; pKd (SCRIB_3, Q14160): 4.8; pKd (SNTB1, Q13884): 4.86; pKd (SNTG2, Q9NY99): 4.05"
"PSDSVGKDVF [EGLN1, Q9GZT9]",below the threshold,below the threshold,below the threshold,3.49,below the threshold,3.57,below the threshold,below the threshold,below the threshold,below the threshold,below the threshold,below the threshold,below the threshold,below the threshold,below the threshold,below the threshold,below the threshold,below the threshold,below the threshold,below the threshold,"pKd (RHPN1, Q8TCX5): below the threshold; pKd (SCRIB_1, Q14160): below the threshold; pKd (SCRIB_3, Q14160): below the threshold; pKd (SNTB1, Q13884): below the threshold; pKd (SNTG2, Q9NY99): below the threshold"
"HDDYFYHDEL [RCN2, Q14257]",below the threshold,below the threshold,below the threshold,below the threshold,below the threshold,below the threshold,3.53,below the threshold,below the threshold,below the threshold,below the threshold,below the threshold,below the threshold,below the threshold,below the threshold,below the threshold,below the threshold,3.96,below the threshold,3.5,"pKd (RHPN1, Q8TCX5): below the threshold; pKd (SCRIB_1, Q14160): below the threshold; pKd (SCRIB_3, Q14160): 3.81; pKd (SNTB1, Q13884): below the threshold; pKd (SNTG2, Q9NY99): below the threshold"
"KKTPVSRSHL [SLC22A3, O75751]",below the threshold,below the threshold,4.2,below the threshold,3.52,below the threshold,below the threshold,below the threshold,below the threshold,below the threshold,below the threshold,below the threshold,below the threshold,below the threshold,below the threshold,below the threshold,below the threshold,below the threshold,below the threshold,below the threshold,"pKd (RHPN1, Q8TCX5): below the threshold; pKd (SCRIB_1, Q14160): 3.91; pKd (SCRIB_3, Q14160): below the threshold; pKd (SNTB1, Q13884): below the threshold; pKd (SNTG2, Q9NY99): 3.48"
